Assay results from publication PMC9606830, “GhBEE3-Like gene regulated by brassinosteroids is involved in cotton drought tolerance”.

T1: GhBZR1-His (Gossypium hirsutum, UniProt A0A1B0QVW2 1-313)
T1 sequence: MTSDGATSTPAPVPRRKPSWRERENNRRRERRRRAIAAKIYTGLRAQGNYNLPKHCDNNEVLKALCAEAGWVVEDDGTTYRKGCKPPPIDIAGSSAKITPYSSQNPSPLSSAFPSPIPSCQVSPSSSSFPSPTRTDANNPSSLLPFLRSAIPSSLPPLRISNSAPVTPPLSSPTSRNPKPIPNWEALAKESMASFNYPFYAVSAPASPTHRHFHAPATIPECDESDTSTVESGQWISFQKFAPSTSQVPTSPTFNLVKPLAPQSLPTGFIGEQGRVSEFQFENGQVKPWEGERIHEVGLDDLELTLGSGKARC


Legend:
GhBZR1-His [1] = biological target: T1, GhBZR1-His; assay: EMSA; LightShift Chemiluminescent EMSA Kit (Thermo); buffer, salt, pH and temperature not stated; conditions: protein: recombinant; tags: C-terminal His (pET30a); chain copies: 2; label: biotin on both strands (text: 3'-end and 5'-end); blunt
GhBZR1-His [2] = biological target: T1, GhBZR1-His; assay: competition; unlabelled competitor against biotinylated GhBEE3-Like Probe; significantly reduced the shift; LightShift Chemiluminescent EMSA Kit (Thermo); buffer, salt, pH and temperature not stated; conditions: protein: recombinant; tags: C-terminal His (pET30a); chain copies: 2; label: none; blunt

Row | Binder | binding result (GhBZR1-His [1]) | binding result (GhBZR1-His [2])
1 | Mutant Probe (dsDNA) DNA 1: ACAATTAAGCGGAACATGTC DNA 2: GACATGTTCCGCTTAATTGT | no binding | –
2 | GhBEE3-Like Probe (dsDNA) DNA 1: ACAATTACACGTGACATGTC DNA 2: GACATGTCACGTGTAATTGT | binds | –
3 | Competitor Probe (dsDNA) DNA 1: ACAATTACACGTGACATGTC DNA 2: GACATGTCACGTGTAATTGT | – | binds
